From patent US20160264663A1 (published 2016) come the findings set out here.

As usually defined, the Kd is the equilibrium constant for the complex coming apart. What is called EC50 is the midpoint of the concentration-response curve. Low values mean greater potency, high ones weaker potency. As usually defined, the IC50 is the concentration that gives 50% inhibition. A lower IC50 goes with greater potency.

In experiment [1] the target is T1, human podocalyxin (human).
T1 chain: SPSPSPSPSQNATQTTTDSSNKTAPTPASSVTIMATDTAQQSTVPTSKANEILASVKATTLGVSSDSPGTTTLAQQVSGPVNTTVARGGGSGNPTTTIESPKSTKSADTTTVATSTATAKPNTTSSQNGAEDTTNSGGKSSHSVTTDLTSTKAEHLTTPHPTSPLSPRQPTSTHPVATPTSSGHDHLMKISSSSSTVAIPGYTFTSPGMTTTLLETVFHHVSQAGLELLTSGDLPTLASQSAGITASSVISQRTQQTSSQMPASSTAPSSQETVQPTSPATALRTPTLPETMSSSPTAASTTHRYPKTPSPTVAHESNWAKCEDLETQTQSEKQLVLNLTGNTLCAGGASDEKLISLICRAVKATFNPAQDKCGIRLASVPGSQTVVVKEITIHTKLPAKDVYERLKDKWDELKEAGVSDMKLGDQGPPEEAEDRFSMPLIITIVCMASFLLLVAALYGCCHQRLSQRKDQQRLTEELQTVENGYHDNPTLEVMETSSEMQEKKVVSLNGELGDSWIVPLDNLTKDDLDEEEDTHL
The experiment in a line: flow cytometry, control antibody, A172 cells.

Experiment [2] deals with T1, human podocalyxin. Briefly: flow cytometry, control antibody, MCF7 cells. (In general: In flow cytometry, cells or beads pass a laser one at a time.)
In experiment [3] the target is T1, human podocalyxin. The experiment in a line: flow cytometry, control antibody, CaOV3 cells.
In experiment [4] the target is T1, human podocalyxin. Briefly: flow cytometry, control antibody, HUVEC cells.
Experiment [5] deals with T1, human podocalyxin. The experiment in a line: flow cytometry, control antibody, T47-D cells.
The target in experiment [6] is T1, human podocalyxin. Briefly: flow cytometry, control antibody, OVCAR3 cells.
The target in experiment [7] is T1, human podocalyxin. Briefly: flow cytometry, control antibody, 293 HEK cells.
The target in experiment [8] is T1, human podocalyxin. Briefly: flow cytometry, control antibody, OVCAR10 cells.
The target of experiment [9] is T1, human podocalyxin. Briefly: flow cytometry, control antibody, MDA-MB-231 cells.
Experiment [10] addresses T1, human podocalyxin. Briefly: cross competition FACS on MDA-MB-231 cells; unlabeled antibody 25 ug/mL; detected antibody: B-mIgG1 5 ug/mL (control).
Experiment [11] addresses T1, human podocalyxin. Briefly: cross competition FACS on MDA-MB-231 cells; unlabeled antibody 25 ug/mL; detected antibody: B-Ova 12 5 ug/mL (control).
Experiment [12] has as its target T1, human podocalyxin. The experiment in a line: cross competition FACS on MDA-MB-231 cells; unlabeled antibody 25 ug/mL; competitor and detected antibody: B-3G2.2 5 ug/mL.
Experiment [13] addresses T1, human podocalyxin. Briefly: cross competition FACS on MDA-MB-231 cells; unlabeled antibody 25 ug/mL; competitor and detected antibody: biotinylated Rb/Hu Podo83 5 ug/mL.
Experiment [14] deals with T1, human podocalyxin. Briefly: cross competition FACS on MDA-MB-231 cells; unlabeled antibody 25 ug/mL; detected antibody: B-Herceptin 5 ug/mL (control, its target on the cells not given).
Experiment [15] concerns the target T1, human podocalyxin. The experiment in a line: FACS, isotype control, hPodo/MDA cells.
The target of experiment [16] is T1, human podocalyxin. Briefly: flow cytometry, supernatant 1:5, MDA-MB-231 cells.
For experiment [17], the target named is T1, human podocalyxin. The experiment in a line: flow cytometry, supernatant neat, MDA-MB-231 cells.
In experiment [18] the target is T1, human podocalyxin. The experiment in a line: flow cytometry, supernatant 1:125, MDA-MB-231 cells.
The target of experiment [19] is T1, human podocalyxin. Briefly: kinetic exclusion assay (KinExA 3200), MDA-MB-231 cells. Background: In KinExA the mixture passes briefly over coated beads that capture the unbound partner.
Experiment [20] has as its target T1, human podocalyxin. The experiment in a line: flow cytometry, supernatant 2:15 (so in the source), MDA-MB-231 cells.
Experiment [21] concerns the target T1, human podocalyxin. Briefly: flow cytometry, supernatant 1:5, hPodo/MDA-MB-231 transient transfectants.
The target of experiment [22] is T1, human podocalyxin. Briefly: flow cytometry, supernatant neat, hPodo/MDA-MB-231 transient transfectants.
For experiment [23], the target named is T1, human podocalyxin. The experiment in a line: flow cytometry, supernatant 1:125, hPodo/MDA-MB-231 transient transfectants.
Experiment [24] addresses T1, human podocalyxin. The experiment in a line: flow cytometry titration on 293-6E cells (endogenous podocalyxin), 24 hours at 4 C.
Experiment [25] concerns the target T1, human podocalyxin. The experiment in a line: flow cytometry titration on 293-6E cells (endogenous podocalyxin), 48 hours at 4 C.
In experiment [26] the target is T1, human podocalyxin. The experiment in a line: flow cytometry, supernatant 2:15 (so in the source), hPodo/MDA-MB-231 transient transfectants.
For experiment [27], the target named is human podocalyxin (human). Briefly: FACS, hPodo/MDA cells (MDA-MB-231 transfected with human podocalyxin cDNA).
The target in experiment [28] is human podocalyxin (human). Briefly: flow cytometry, supernatant 1:5, MDA-MB-231 cells. This is another data set of the same source.
Experiment [29] deals with human podocalyxin (human). Briefly: flow cytometry, supernatant neat, MDA-MB-231 cells. The source holds these as a separate data set.
For experiment [30], the target named is human podocalyxin (human). Briefly: flow cytometry, supernatant 1:125, MDA-MB-231 cells. The source holds these as a separate data set.
Experiment [31] deals with human podocalyxin (human). The experiment in a line: flow cytometry, supernatant 2:15 (so in the source), MDA-MB-231 cells. This is another data set of the same source.
For experiment [32], the target named is human podocalyxin (human). The experiment in a line: flow cytometry, supernatant 1:5, hPodo/MDA-MB-231 transient transfectants. This is another data set of the same source.
For experiment [33], the target named is human podocalyxin (human). Briefly: flow cytometry, supernatant neat, hPodo/MDA-MB-231 transient transfectants. This is another data set of the same source.
Experiment [34] deals with human podocalyxin (human). The experiment in a line: flow cytometry, supernatant 1:125, hPodo/MDA-MB-231 transient transfectants. This is another data set of the same source.
Experiment [35] concerns the target human podocalyxin (human). The experiment in a line: flow cytometry, supernatant 2:15 (so in the source), hPodo/MDA-MB-231 transient transfectants. This is another data set of the same source.

As to Control Rb/Hu IgG1 (antibody), the Live cell GeoMean FL (geometric mean fluorescence units) in experiment [1] stood at 644; in experiment [2], 657; in experiment [3], 767; in [4], 489; in experiment [5], 667; in [6], 629. In addition, the Live cell GeoMean FL (geometric mean fluorescence units) in experiment [7] was 446; in experiment [8], 653; in experiment [9], 477.

For the molecule mIgG1 (antibody), the FACS signal (name not given) was 414 in experiment [10]; 458 in experiment [11]; 26600 in [12]; 124000 in experiment [13]; 4810 in experiment [14].

With hIgG2 (antibody), the FACS signal (name not given) in experiment [15] amounted to 533.

Consider “3D3 (Santa Cruz Biotechnology sc23904) (antibody)”, for which the FACS signal (name not given) in experiment [10] worked out at 419; in experiment [11], 450; in [12], 26400; in experiment [13] it was 135000; in [14], 4820.

Molecule hIgG1 (antibody) gave an FACS signal (name not given) in [15] of 544.

Regarding MAB1658 (R&D Systems) (antibody), the FACS signal (name not given) in experiment [10] turned out to be 431; in [11], 476; in experiment [12], 26900; in experiment [13], 127000; in experiment [14], 4720.

B1: huPodo 83 1:1 (humanized anti-podocalyxin antibody 83, version 1) (antibody, V domains shown)
VH: EVQLVESGGGLVQPGGSLRLSCAASGIDLSSYAMGWVRQAPGKGLEWVSFIYASGSIFYASWAKGRFTISRDNSKNTLYLQMNSLRAEDTAVYYCARAGYYFGGNYDLNLWGQGTLVTVSS
VL: DIQMTQSPSSLSASVGDRVTITCQASQSISNYLAWYQQKPGKVPKLLIYRASTLASGVPSRFSGSGSGTDFTLTISSLQPEDVATYYCQQGYVSNNLDNIFGGGTEVVVK
Regarding B1, the “FACS signal (name not given)” value in [16] is 112000; in experiment [17], 125000; in experiment [18] it was 39400; in experiment [20], 91500; in experiment [21], 128000; in [22] it was 124000. Further, the “FACS signal (name not given)” value came to 61600 in [23] and 157000 in [26]. In [19], this molecule had a dissociation constant (Kd) of 0.26 nM. This molecule had an EC50 in experiment [24] of 0.0331 µg/mL. Further, the IC50 in [25] was 0.0355 µg/mL.

B2: Rb VH, Vk 1:1 (Podo 83 rabbit VH, human CH1-CH3, human Ck, and humanized Vk) (antibody, V domains shown)
VH: QSLAESGGRLVTPGTPLTLTCTASGIDLSSYAMGWVRQAPGKGLEYIGFIYASGSIFYASWAKGRFTISKTSSTTVDLKMTSLTTEDTATYFCARAGYYFGGNYDLNLWGQGTLVTVSS
VL: B1 VL
As for B2, the “FACS signal (name not given)” value came to 115000 in experiment [16]; 130000 in [17]; 47700 in [18]; 94800 in experiment [20]; 124000 in [21]; 137000 in experiment [22]. Also, the “FACS signal (name not given)” value in [23] came to 74500; in experiment [26], 76400.

B3: huPodo 83 2:1 (humanized anti-podocalyxin antibody 83, version 2) (antibody, V domains shown)
VH: EVQLVESGGGLVQPGGSLRLSCAASGIDLSSYAMGWVRQAPGKGLEWVSFIYASGSIFYASWAKGRFTISRDNSNTLYLQMNSLRAEDTAVYYCARAGYYFGGNYDLNLWGQGTLVTVSS
VL: B1 VL
For the molecule B3, the “FACS signal (name not given)” value in experiment [16] was found to be 105000; in experiment [17], 123000; in experiment [18], 22300; in experiment [20], 67200; in experiment [21], 108000; in experiment [22], 139000. Besides, the “FACS signal (name not given)” value worked out at 37700 in [23] and 79400 in [26]. Besides, the EC50 in experiment [24] stood at 0.0519 µg/mL. The half-inhibitory concentration (IC50) in [25] came to 0.052 µg/mL.

B4: Mouse anti-podocalyxin antibody 3G2 (antibody, V domains shown)
VH: EVQLQQSGPELVKPGASVKMSCKASGYTFTSYVMHWVKQKPGQGLEWIGYIHPYNDGTNYNEKFKGKATLTSDKSSNTAYMELSSLTSEDSAVYYCARSWDWYFDVWGAGTTVTVSS
VL: QIVLTQSPAIMSASPGEKVTMTCSANSNVRYIHWHQQKSGTSPKRWIYDTSKLSSGVPARFSGSGSGTSYSLTISNMEAEDAATYYCQQWISNPLTFGAGTKLELK
Consider B4, for which the Kd in [19] turned out to be 3.34 nM.

B5: Rb/huPodo 83 hIgG2 (antibody, V domains shown)
VH: CQSLAESGGRLVTPGTPLTLTCTASGIDLSSYAMGWVRQAPGKGLEYIGFIYASGSIFYASWAKGRFTISKTSSTTVDLKMTSLTTEDTATYFCARAGYYFGGNYDLNLWGQGTLVTVSS
VL: DIVLTQTPASVEVAVGGTVTIKCQASQSISNYLAWYQRKPGQPPRLLIYRASTLASGVSSRFKGSGSGTQFTLTISGVECADAATYYCQQGYVSNNLDNIFGGGTEVVVK
modifications: human IgG2 constant regions
Molecule B5 displayed an FACS signal (name not given) in experiment [27] of 98300.

B6: Rabbit Podo 83 (Parental rabbit antibody) (antibody, V domains shown)
VH: B5 VH
VL: B5 VL
modifications: rabbit constant regions
In the case of B6, the FACS signal (name not given) came to 129000 in experiment [28]; 179000 in experiment [29]; 15500 in [30]; 53700 in [31]; 139000 in [32]; 90800 in experiment [33]. Moreover, the results for the FACS signal (name not given) in [34] and in [35] were 24100 and 89700, respectively.
